Results as given in IntAct's records for PubMed 21203436.

B1: Protein MKS1 (Arabidopsis thaliana (Mouse-ear cress)), Q8LGD5 (parent)
chain: MDPSEYFAGGNPSDQQNQKRQLQICGPRPSPLSVHKDSHKIKKPPKHPAPPPNRDQPPPYIPREPVVIYAVSPKVVHATASEFMNVVQRLTGISSGVFLESGGGGDVSPAARLASTENASPRGGKEPAARDETVEINTAMEEAAEFGGYAPGILSPSPALLPTASTGIFSPMYHQGGMFSPAIPLGLFSPAGFMSPFRSPGFTSLVASPTFADFFSHIWDQD
partner: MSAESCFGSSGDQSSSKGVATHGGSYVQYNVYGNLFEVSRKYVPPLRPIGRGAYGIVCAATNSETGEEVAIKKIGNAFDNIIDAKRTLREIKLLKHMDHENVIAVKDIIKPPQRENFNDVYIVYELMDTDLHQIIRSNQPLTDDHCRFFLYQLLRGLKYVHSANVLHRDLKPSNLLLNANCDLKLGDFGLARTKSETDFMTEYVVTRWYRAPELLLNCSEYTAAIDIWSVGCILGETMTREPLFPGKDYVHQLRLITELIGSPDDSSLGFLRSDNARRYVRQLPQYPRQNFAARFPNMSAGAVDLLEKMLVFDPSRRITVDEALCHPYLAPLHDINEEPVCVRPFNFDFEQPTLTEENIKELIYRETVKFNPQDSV

Variants of: B1
Conditions: with mpk4_arath MPK4, Q39024

Effect of a mutation on the interaction, disrupting interaction:
P29A
K40A
K19A
S38A
L32A
R28A
